Assay results published in paper PMC6780499, “Characterization, Recombinant Production and Structure-Function Analysis of NvCI, A Picomolar Metallocarboxypeptidase Inhibitor from the Marine Snail Nerita versicolor” (Marine Drugs, 2019).
No end group written: not given here.

Legend:
bTAFI = target: T1, bTAFI (Bos taurus, UniProt Q2KIG3); assay: Ki determination, tight-binding inhibition of metallocarboxypeptidase; type: biochemical, bovine; conditions: tight-binding equation fit; substrate AAFA 0.1mM; enzyme-inhibitor mixture not preincubated; 37 °C; means (n = 3) ± SD
T1 sequence (Q2KIG3 115-423): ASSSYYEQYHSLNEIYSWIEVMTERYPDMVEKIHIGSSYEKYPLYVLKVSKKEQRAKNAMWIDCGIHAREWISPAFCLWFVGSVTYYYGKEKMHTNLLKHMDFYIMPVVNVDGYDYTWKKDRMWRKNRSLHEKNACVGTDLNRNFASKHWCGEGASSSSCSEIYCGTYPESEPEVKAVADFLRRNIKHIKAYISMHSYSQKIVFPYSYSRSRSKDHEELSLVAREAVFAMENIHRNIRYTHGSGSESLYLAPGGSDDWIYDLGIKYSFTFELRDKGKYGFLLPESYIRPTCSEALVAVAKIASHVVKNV
Method: Inhibitory activities against CPA- and CPB-type forms (bovine and human variants of CPA1, CPA2, CPA4, CPB1, and TAFI) were assayed for all extracts, subject to the experimental conditions that enzyme (E), substrate (S) and inhibitor (I) concentrations as well as the [I]/[E] ratio and preincubation time followed the requirements for tight-binding inhibitor assays. Similar approaches were followed to measure the activities of proteases of different catalytic types, like pepsin, papain, trypsin and subtilisin [45, 46, 47, 48]. All assays were performed in triplicate at 25 °C in a multiplexed manner. For 96-well assays an iEMS spectrophotometer reader/dispenser FM (Labsystems, Finland) was used with a final reaction volume of 250 μL. […] The reactions were followed at 5 s intervals for 5 min and recorded as initial velocities. […]
The Ki values of natural and recombinant NvCI against bCPA1, hCPA1, hCPA2, rat CPA3, hCPA4, hCPB1, bTAFI, hTAFI, hCPD and hCPZ were determined by measuring the enzymatic residual activity (Vi/V0 = a) at different inhibitor concentrations and using a fixed enzyme and substrate concentrations as described above, where vi and v0 are the fraction of enzymatic activity in the presence and absence of inhibitor, respectively, in terms of initial velocities. […]

[1] = Folding state and stability by CD at different pH and temperature; type: physicochemical; conditions: pH 2 to 10, 25 °C to 90 °C, 0.05–0.06 mg/ml
Method: The folding state and stability of NvCI was investigated on the natural and recombinant forms by CD. The proteins, either in 0.1% TFA (v/v) or 20mM sodium phosphate (pH 2.0, 6.5 or 8.0) were analyzed at 0.05–0.06 mg/ml, from 25 to 90 °C in a Jasco J-710 spectropolarimeter (Pfugnstadt, Germany) in the 190–320nm range. Additional analyses were made under folding conditions (20mM sodium phosphate, pH 8.0) in the absence and presence of reducing reagent (1 or 20 mM DTT), a redox-pair (1mM Cys + 0.5mM cystine), and either absence or presence of denaturant (8 M urea). Complementary ^1H-NMR experiments were performed in a 500MHz NMR (Bruker Advance) on rNvCI in 20 mM sodium phosphate (pH 2.0 and 6.5), in 90% ^1H2O + 10% D2O, at 298 K. DQF-COSY, NOESY, TOCSY and HSQC spectra were obtained in a TCI cryoprobe of 5mm and used for provisional backbone assignment.

Ki (bTAFI): 0.121 ± 0.0201 nM
Substance: NvCI: 53-residue, three-disulphide proteinaceous metallocarboxypeptidase inhibitor from the marine snail Nerita versicolor; major isoform; UniProt P86912 (FHVPDDRPCINPGRCPLVPDATCTFVCKAADNDFGYECQHVWTFEGQRVGCYA; disulfide (positions not given here); also: three disulphides, pairing not given here; UniProt P86912 1-53, looked up)
stability by CD spectra [1]: great stability and capacity to recover its spectral properties when returned to room conditions
